Assay results as given in patent publication US20170304444A1 (Dana-Farber, published 2017).
Positions count from the first letter of the chain named.

T1: glucocorticoid-induced tumor necrosis factor receptor (GITR) (human, UniProt Q9Y5U5 26-241)
T1 chain: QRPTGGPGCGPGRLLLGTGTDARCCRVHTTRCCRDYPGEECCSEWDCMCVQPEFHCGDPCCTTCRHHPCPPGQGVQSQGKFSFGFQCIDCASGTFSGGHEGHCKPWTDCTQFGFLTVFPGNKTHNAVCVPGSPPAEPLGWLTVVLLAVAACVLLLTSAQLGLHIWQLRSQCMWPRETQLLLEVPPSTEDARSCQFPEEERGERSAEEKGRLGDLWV

T2: glucocorticoid-induced tumor necrosis factor receptor (GITR) (human, UniProt Q9Y5U5 26-241)
T2 construct: whole, on cells; also called GITR expressing 293T cells
T2 sequence (looked up): T1 chain

B1: mAb #14-182 (antibody, V domains shown)
VH: QVQLVQSGAEVKQPGSSVKVSCKASGYTFTGYYMHWVRQAPGEGLEWLGWINPHSGGTNYAQKFQGRVTITADKSTSTAYMELSSLRSEDTAVYYCAREIVVVTAPAAAAMDVWGQGTLVTVSS
VL: QSVLTQPPSASGSPGQSVTISCTGSSSDVAIYDRVSWYQQPPGTAPKLILYDVHDRPSGVPDRFSGSKSGNTASLTISGLQAEDEADYYCSSYTTSGTFVFGSGTKVTVLG
B2: mAb #15-68 (antibody, V domains shown)
VH: EVQLVQSGAEVKKPGASVNVSCKASGYTFTGYYMHWVRQAPGQGLEWMGWINPNSGGTNYAQKFQGRVTVTTDTSNSTAYMELNRLKSDDTAVYYCAREGSGDLDSLYMDVWGKGTMVTVSS
VL: SYELTQPPSVSVAPGQTARITCGANNIGSKSVHWYQQKPGQAPVLVVYDDSDRPSGIPERFSGSNSGNTATLTITRVEAGDEADYYCQLWDGGSDVVFGGGTKLTVLG
B3: mAb #10-116 (antibody, V domains shown)
VH: EVQLVQSGADVKKPGASVKVSCKASGYTFTGYYIHWVRQAPGQGLEWMGWINPNSGGTNYAQKFQGRVTMTRDTSISTAYMELSRLRSDDTAVYFCVREVKDYYYYMDVWGRGTTVTVSS
VL: NFMLTQPHSVSESPGKTVTISCTRSSGSIASNSVQWYLQRPGSAPTTLIFDNKQRPSGVPDRFSGSIDSSSNSASLSISGLTTEDEADYFCQSYDDSEQVVFGGGTKLTVLS
B4: mAb #11-126 (antibody, V domains shown)
VH: EVQLVESGAEVKKPGASVKVSCKASGYTFTGYYMHWVRQAPGQGLEWLGWVNPHSGGTNYAQKFQGRVTMTRDTSISTAYMELSRLRSDDTAVYYCARETDISANYHFDYWGQGTLVTVSS
VL: QSALTQPASVSGSPGQSITISCTGTSSDVGSYNAVSWYQHHPGKAPKLMIYEVSKRPSGVSNRFSGSKSGNTASLTISGLRAEDEADYYCATWDDSLKGPVFGGGTKLTVLG
B5: mAb #12-46 (antibody, V domains shown)
VH: EVQLVQSGAEVKKPGASVKVSCKASGYTFTGYYMHWVRQAPGQGLEWMGWINPKTGDTNYAQKFQGRVALSRDTSFNTAYMDLSSLRSDDTAVYYCAREGLSTSSPLDYWGQGTLVTVSS
VL: QPGLTQPPSVSVAPGQSAKITCGENELATNIVHWYQQKPGQAPVLVIYHDNDRPSGIPERFSGSNAGNTATLTISRVEAGDEADFYCQLWDSASDQVVFGGGTTLTVLG
B6: mAb #13-169 (antibody, V domains shown)
VH: EVQLVQSGAEVKRPGASLKVSCKASGYTFTSHYIHWVRQAPGQGLEWMGWINTGNGDTRYSQRFQGRVTVTRDTSASTVYMELSSLRSEDTAVYYCARESSSSWFVAFDVWGQGTTVTVSS
VL: QPVLTQPPSVSLAPGQTARITCSEKNIRSKRVHWYQQKPGQAPVLVMYSDNGRRSGIPDRFSGSNSGNTATLTITRVEAGDEGDFYCQVWDPITDQVVFGGGTKLTVLG
B7: mAb 3-167 (antibody, V domains shown)
VH: EVQLVQSGSELKKPGASVKVSCKASGYTFTGYYMHWVRQAPGQGLEWMGWINPNSGGTNYAQKFQGRVTVTTDTSTSTAYMELRSLRSDDTAVYYCAREGVHSDAFDVWGQGTTVTVSS
VL: ETTLTQSPATLSVSPGERATLSCRASQSVYTNLAWYQQKPGQAPSLLIYGASSRATGIPDRFSGSGSGTDFTLTISRLEPEDFAVYYCQQYGSSHFTFGPGTKVDIK
B8: mAb #7-192 (antibody, V domains shown)
VH: EVQLVESGAEVKKPGASVKVSCKTSGYTFTDHYIHWVRQAPGQGLEWMGWINPSSGGTEYAQKFQGRVTMTRDTPISTAYMDLSGLRSDDTAVYYCARETIGGWNALDVWGQGTLVTVSS
VL: MPVLTQPPSVSVAPGQTARITCGGHKIGTKSVHWYQQKPGQAPVLVVYDDRDRPSGIPERFSGSNSGGTATLTISRVEAGDEADYYCQVWDSNSDHVVFGGGTKLTVLS
B9: mAb #17-60 (antibody, V domains shown)
VH: B8 VH
VL: QPVLTQPPSASGTPGQRVTISCSGSSSNIGINTVNWYQQLPRTPPKLLIYTNNQRPSGVPDRFSGSKSDTSASLAISGLQSEDEADYYCAAWDDTLNGPLFGGGTKVTVLG
B10: mAb #5-139 (antibody, V domains shown)
VH: B8 VH with E6Q, L115T
VL: QSVLTQPPSASGSPGQRVTMSCSGSSSTIGRHSVNWYQQLPGTAPKLLIYANNQRPSGVPGRFSASKSDTSASLAISGLRSEDEANYYCAAWDDSLSGVLFGGGTKVTVLG
B11: mAb #1-81 (antibody, V domains shown)
VH: B8 VH
VL: B9 VL
notes: Found as scFv by phage display

Molecular target: T1, glucocorticoid-induced tumor necrosis …
Test: BLI

| Binder | Kd [nM] |
| --- | --- |
| B1 | 1.82 |
| B2 | 3.81 |
| B3 | 4.77 |
| B4 | 2.8 |
| B5 | 5.07 |
| B6 | 3.21 |
| B7 | 0.855 |
| B8 | 3.13 |
| B9 | 1.14 |
| B10 | 0.42 |
| B11 | 1.66 |

Molecular target: T2, glucocorticoid-induced tumor necrosis …
Test: flow cytometry on GITR-expressing 293T cells, FITC anti-human Fc detection

| Binder | binding result |
| --- | --- |
| B1 | binds |
| B3 | binds |
| B4 | binds |
| B5 | binds |
| B6 | binds |
| B7 | binds |
| B8 | binds |
| B10 | binds |
| B11 | binds |

Molecular target: T1, glucocorticoid-induced tumor necrosis …
Test: flow cytometry, GITR-expressing 293T cells

| Binder | EC50 [nM] |
| --- | --- |
| B1 | 20.5 |
| B2 | 26.5 |
| B3 | 28.3 |
| B4 | 13 |
| B5 | 72.4 |
| B6 | 47 |
| B7 | 28.2 |
| B8 | 19.3 |
| B9 | 15.1 |
| B10 | 16.8 |
| B11 | 22.4 |
